Series [1] concerns the target N-terminal truncated AbiV lacking its first 23 amino acids (AbiV_Δ23) (L. cremoris MG1363). Nature of the series: crystal structure.
In series [2] the target is surface lysine methylated full-length AbiV (product of abiV1) from L. cremoris MG1363 (L. cremoris MG1363). As to the kind of experiment: crystal structure.
The target in series [3] is T1, AbiV (AbiV1, HEPN RNase toxin) (Lactococcus cremoris MG1363, UniProt A2RJ64 1-201).
T1 sequence: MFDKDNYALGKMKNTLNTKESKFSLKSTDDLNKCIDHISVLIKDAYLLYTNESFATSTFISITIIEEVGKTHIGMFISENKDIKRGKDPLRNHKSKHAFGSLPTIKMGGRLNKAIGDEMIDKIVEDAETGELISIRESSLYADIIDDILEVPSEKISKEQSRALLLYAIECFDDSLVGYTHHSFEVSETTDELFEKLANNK
Nature of the series: EMSA. A general note: A gel shift assay detects complexes by their altered migration in electrophoresis.

The values below come from publication doi:10.1101/2024.05.05.592566.

What is called stoichiometry N is a count of units in the complex or per binding partner. “N-terminal truncated AbiV lacking its first 23 amino acids (AbiV_Δ23) (domain or fragment)” came in with a stoichiometry N in series [1] of 2.

The molecule “surface lysine methylated full-length AbiV (product of abiV1) from L. cremoris MG1363 (enzyme)” yielded a stoichiometry N in series [2] of 2.

Turning to AAUUGAUACUGUCAAUA (ssRNA) [abiV2 motif50-66 (17-mer short RNA)], the binding result in series [3] is “no binding”.

Take AAGUAGCUGCAACUACUA (ssRNA) [abiV2 motif85-102 (18-mer short RNA)]: in series [3], the binding result was “binds”.
